Reference: paper PMC10540216, “Activity Guided Azide-methyllysine Photo-trapping for Substrate Profiling of Lysine Demethylases” (Journal of the American Chemical Society, 2023)

B1: FUS_HUMAN (protein, UniProt P35637 1-526, looked up)
RNA-binding protein FUS: MASNDYTQQATQSYGAYPTQPGQGYSQQSSQPYGQQSYSGYSQSTDTSGYGQSSYSSYGQSQNTGYGTQSTPQGYGSTGGYGSSQSSQSSYGQQSSYPGYGQQPAPSSTSGSYGSSSQSSSYGQPQSGSYSQQPSYGGQQQSYGQQQSYNPPQGYGQQNQYNSSSGGGGGGGGGGNYGQDQSSMSSGGGSGGGYGNQDQSGGGGSGGYGQQDRGGRGRGGSGGGGGGGGGGYNRSSGGYEPRGRGGGRGGRGGMGGSDRGGFNKFGGPRDQGSRHDSEQDNSDNNTIFVQGLGENVTIESVADYFKQIGIIKTNKKTGQPMINLYTDRETGKLKGEATVSFDDPPSAKAAIDWFDGKEFSGNPIKVSFATRRADFNRGGGNGRGGRGRGGPMGRGGYGGGGSGGGGRGGFPSGGGGGGGQQRAGDWKCPNPTCENMNFSWRNECNQCKAPKPDGPGGGPGGSHMGGNYGDDRRGGRGGYDRGGYRGRGGDRGGFRGGRGGGDRGGFGPGKMDSRGEHRQDRRERPY
B2: AT2A2_HUMAN (protein, UniProt P16615 1-1042, looked up)
Sarcoplasmic/endoplasmic …: MENAHTKTVEEVLGHFGVNESTGLSLEQVKKLKERWGSNELPAEEGKTLLELVIEQFEDLLVRILLLAACISFVLAWFEEGEETITAFVEPFVILLILVANAIVGVWQERNAENAIEALKEYEPEMGKVYRQDRKSVQRIKAKDIVPGDIVEIAVGDKVPADIRLTSIKSTTLRVDQSILTGESVSVIKHTDPVPDPRAVNQDKKNMLFSGTNIAAGKAMGVVVATGVNTEIGKIRDEMVATEQERTPLQQKLDEFGEQLSKVISLICIAVWIINIGHFNDPVHGGSWIRGAIYYFKIAVALAVAAIPEGLPAVITTCLALGTRRMAKKNAIVRSLPSVETLGCTSVICSDKTGTLTTNQMSVCRMFILDRVEGDTCSLNEFTITGSTYAPIGEVHKDDKPVNCHQYDGLVELATICALCNDSALDYNEAKGVYEKVGEATETALTCLVEKMNVFDTELKGLSKIERANACNSVIKQLMKKEFTLEFSRDRKSMSVYCTPNKPSRTSMSKMFVKGAPEGVIDRCTHIRVGSTKVPMTSGVKQKIMSVIREWGSGSDTLRCLALATHDNPLRREEMHLEDSANFIKYETNLTFVGCVGMLDPPRIEVASSVKLCRQAGIRVIMITGDNKGTAVAICRRIGIFGQDEDVTSKAFTGREFDELNPSAQRDACLNARCFARVEPSHKSKIVEFLQSFDEITAMTGDGVNDAPALKKAEIGIAMGSGTAVAKTASEMVLADDNFSTIVAAVEEGRAIYNNMKQFIRYLISSNVGEVVCIFLTAALGFPEALIPVQLLWVNLVTDGLPATALGFNPPDLDIMNKPPRNPKEPLISGWLFFRYLAIGCYVGAATVGAAAWWFIAADGGPRVSFYQLSHFLQCKEDNPDFEGVDCAIFESPYPMTMALSVLVTIEMCNALNSLSENQSLLRMPPWENIWLVGSICLSMSLHFLILYVEPLPLIFQITPLNVTQWLMVLKISLPVILMDETLKFVARNYLEPGKECVQPATKSCSFSACTDGISWPFVLLIMPLVIWVYSTDTNFSDMFWS
B3: CALD1_HUMAN (protein, UniProt Q05682 1-793, looked up)
Caldesmon: MDDFERRRELRRQKREEMRLEAERIAYQRNDDDEEEAARERRRRARQERLRQKQEEESLGQVTDQVEVNAQNSVPDEEAKTTTTNTQVEGDDEAAFLERLARREERRQKRLQEALERQKEFDPTITDASLSLPSRRMQNDTAENETTEKEEKSESRQERYEIEETETVTKSYQKNDWRDAEENKKEDKEKEEEEEEKPKRGSIGENQVEVMVEEKTTESQEETVVMSLKNGQISSEEPKQEEEREQGSDEISHHEKMEEEDKERAEAERARLEAEERERIKAEQDKKIADERARIEAEEKAAAQERERREAEERERMREEEKRAAEERQRIKEEEKRAAEERQRIKEEEKRAAEERQRIKEEEKRAAEERQRARAEEEEKAKVEEQKRNKQLEEKKHAMQETKIKGEKVEQKIEGKWVNEKKAQEDKLQTAVLKKQGEEKGTKVQAKREKLQEDKPTFKKEEIKDEKIKKDKEPKEEVKSFMDRKKGFTEVKSQNGEFMTHKLKHTENTFSRPGGRASVDTKEAEGAPQVEAGKRLEELRRRRGETESEEFEKLKQKQQEAALELEELKKKREERRKVLEEEEQRRKQEEADRKLREEEEKRRLKEEIERRRAEAAEKRQKMPEDGLSDDKKPFKCFTPKGSSLKIEERAEFLNKSVQKSSGVKSTHQAAIVSKIDSRLEQYTSAIEGTKSAKPTKPAASDLPVPAEGVRNIKSMWEKGNVFSSPTAAGTPNKETAGLKVGVSSRINEWLTKTPDGNKSPAPKPSDLRPGDVSSKRNLWEKQSVDKVTSPTKV
B4: CPSF6_HUMAN (protein, UniProt Q16630 1-551, looked up)
Cleavage and polyadenylation …: MADGVDHIDIYADVGEEFNQEAEYGGHDQIDLYDDVISPSANNGDAPEDRDYMDTLPPTVGDDVGKGAAPNVVYTYTGKRIALYIGNLTWWTTDEDLTEAVHSLGVNDILEIKFFENRANGQSKGFALVGVGSEASSKKLMDLLPKRELHGQNPVVTPCNKQFLSQFEMQSRKTTQSGQMSGEGKAGPPGGSSRAAFPQGGRGRGRFPGAVPGGDRFPGPAGPGGPPPPFPAGQTPPRPPLGPPGPPGPPGPPPPGQVLPPPLAGPPNRGDRPPPPVLFPGQPFGQPPLGPLPPGPPPPVPGYGPPPGPPPPQQGPPPPPGPFPPRPPGPLGPPLTLAPPPHLPGPPPGAPPPAPHVNPAFFPPPTNSGMPTSDSRGPPPTDPYGRPPPYDRGDYGPPGREMDTARTPLSEAEFEEIMNRNRAISSSAISRAVSDASAGDYGSAIETLVTAISLIKQSKVSADDRCKVLISSLQDCLHGIESKSYGSGSRRERSRERDHSRSREKSRRHKSRSRDRHDDYYRERSRERERHRDRDRDRDRERDREREYRHR
B5: HXK2_HUMAN (protein, UniProt P52789 1-917, looked up)
Hexokinase-2: MIASHLLAYFFTELNHDQVQKVDQYLYHMRLSDETLLEISKRFRKEMEKGLGATTHPTAAVKMLPTFVRSTPDGTEHGEFLALDLGGTNFRVLWVKVTDNGLQKVEMENQIYAIPEDIMRGSGTQLFDHIAECLANFMDKLQIKDKKLPLGFTFSFPCHQTKLDESFLVSWTKGFKSSGVEGRDVVALIRKAIQRRGDFDIDIVAVVNDTVGTMMTCGYDDHNCEIGLIVGTGSNACYMEEMRHIDMVEGDEGRMCINMEWGAFGDDGSLNDIRTEFDQEIDMGSLNPGKQLFEKMISGMYMGELVRLILVKMAKEELLFGGKLSPELLNTGRFETKDISDIEGEKDGIRKAREVLMRLGLDPTQEDCVATHRICQIVSTRSASLCAATLAAVLQRIKENKGEERLRSTIGVDGSVYKKHPHFAKRLHKTVRRLVPGCDVRFLRSEDGSGKGAAMVTAVAYRLADQHRARQKTLEHLQLSHDQLLEVKRRMKVEMERGLSKETHASAPVKMLPTYVCATPDGTEKGDFLALDLGGTNFRVLLVRVRNGKWGGVEMHNKIYAIPQEVMHGTGDELFDHIVQCIADFLEYMGMKGVSLPLGFTFSFPCQQNSLDESILLKWTKGFKASGCEGEDVVTLLKEAIHRREEFDLDVVAVVNDTVGTMMTCGFEDPHCEVGLIVGTGSNACYMEEMRNVELVEGEEGRMCVNMEWGAFGDNGCLDDFRTEFDVAVDELSLNPGKQRFEKMISGMYLGEIVRNILIDFTKRGLLFRGRISERLKTRGIFETKFLSQIESDCLALLQVRAILQHLGLESTCDDSIIVKEVCTVVARRAAQLCGAGMAAVVDRIRENRGLDALKVTVGVDGTLYKLHPHFAKVMHETVKDLAPKCDVSFLQSEDGSGKGAALITAVACRIREAGQR
B6: CX057_HUMAN (protein, UniProt Q6NSI4 1-855, looked up)
RPA-related protein RADX: MSGESGQPEAGPSHAGLDWPNPERNRAGVPGGVIRRAGSQGPRSWIQKVLEQIMDSPRQCVTPSEVVPVTVLAVQRYLLEDEPRDTVPKPPLYCYDVTISDGVYQEKCYLDPSLNSLVYQNILKVGIQMRISRVSCLYNEKRIGQGILCIDNVHCGETSDSISLETPFRNRAHQEKPERPLRGGKSHYLALWNNEDPYGDIWLTDKQPEEHNFSDTKIISLSHLEMTWTNRRNFPALLVRILHKSKLRYYGKPDKKMIEPYQTFLEVADSSGTVSVIMWNALCPEWYKSLRVGLVLLLQDYSVKKSYPFRIQPVPVDPQIKLISTMEICLNLRDPPTNIIIIPEKQVKPEWRLPKLNHRFTTRSELDDMPENCICDVIGLLVFVGRVQRSKKKENREDFWSYRWIHIADGTSEQPFIVELFSTSQPEIFENIYPMAYFVCTQLKVVRNDNQVPKLLYLTTTNESGVFITGHRGQPYTYDAKVKNFIQWIRTKSDSGEQKNMVIGGYYPYPPVPETFSKYSSSIKVESLLTAISEVRKEIEDLQYREQKRIAIQGIITAIKYIPHSSATESASASETLRNANRPSTSQAARVEIQERNGKRHQDDEPVNSQYFQTTSTNLSLSNKIRILQGPHANPVAVPQPGASVQTKGIKPGMPSIFNRRANINANLQGKARKTISDRWESQLWREKKFGLIDHLHYSRVYPESIPRKFMFEHRKFLSDQYNSQPAKYVPPEGRPPKLDDFKSARSLGHFEVTILGLNHEIAIDVAFLPMYCPEDIRTSQIDTLLTSMNYSCAYPQDTTGNDRLPGPRAVAGDIIKAATELDRVHIVGILDICNLGNNKVEVYLHKIYSPENTS
B7: CDC5L_HUMAN (protein, UniProt Q99459 1-802, looked up)
Cell division cycle 5-like …: MPRIMIKGGVWRNTEDEILKAAVMKYGKNQWSRIASLLHRKSAKQCKARWYEWLDPSIKKTEWSREEEEKLLHLAKLMPTQWRTIAPIIGRTAAQCLEHYEFLLDKAAQRDNEEETTDDPRKLKPGEIDPNPETKPARPDPIDMDEDELEMLSEARARLANTQGKKAKRKAREKQLEEARRLAALQKRRELRAAGIEIQKKRKRKRGVDYNAEIPFEKKPALGFYDTSEENYQALDADFRKLRQQDLDGELRSEKEGRDRKKDKQHLKRKKESDLPSAILQTSGVSEFTKKRSKLVLPAPQISDAELQEVVKVGQASEIARQTAEESGITNSASSTLLSEYNVTNNSVALRTPRTPASQDRILQEAQNLMALTNVDTPLKGGLNTPLHESDFSGVTPQRQVVQTPNTVLSTPFRTPSNGAEGLTPRSGTTPKPVINSTPGRTPLRDKLNINPEDGMADYSDPSYVKQMERESREHLRLGLLGLPAPKNDFEIVLPENAEKELEEREIDDTYIEDAADVDARKQAIRDAERVKEMKRMHKAVQKDLPRPSEVNETILRPLNVEPPLTDLQKSEELIKKEMITMLHYDLLHHPYEPSGNKKGKTVGFGTNNSEHITYLEHNPYEKFSKEELKKAQDVLVQEMEVVKQGMSHGELSSEAYNQVWEECYSQVLYLPGQSRYTRANLASKKDRIESLEKRLEINRGHMTTEAKRAAKMEKKMKILLGGYQSRAMGLMKQLNDLWDQIEQAHLELRTFEELKKHEDSAIPRRLECLKEDVQRQQEREKELQHRYADLLLEKETLKSKF

The molecules below were run on KDM4A-I71AzF (assay: CASI: photo-crosslinking with HEK293T cell extracts, StrepTactin enrichment and LC-MS/MS proteomics). Settings: sheet "Final results but with 0.01".
Type: binding, human
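Note: lysates from HEK293T cells pretreated with a KDM4 inhibitor to raise proteome methylation, affinity-purified after ±UV, gel-resolved, trypsin-digested, with exclusive unique peptides per protein averaged per condition.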

| Molecule | Fold change (+UV/-UV) |
| --- | --- |
| B1 | 0.5 |
| B2 | 0.75 |
| B3 | 1.5 |
| B4 | 0.875 |
| B5 | 0.7273 |
| B6 | 0 |
| B7 | 0 |
